# Target: plasminogen
# Assay: cell-based or functional assay
substance,measurement,value
Bacteriophages which harbored K2S on gpIII (K2S-phi; printed with a garbled symbol as K2S-?) (from UniProt P00750 209-562),fibrinogen-dependent enzymatic activity,< 0.25 IU/ml

# From patent US20030049729A1
